Test results from paper PMC8699970.

Columns and labels:
[1] = biological target: AjNLRC4 (native, on coelomocytes) (Apostichopus japonicus (endogenous in coelomocytes)); assay: cross-linking; sea cucumbers injected with V. splendidus for 30 min; coelomocytes treated with BS3 (5 mM, 4°C, 1 h); SDS-PAGE and western blotting with anti-AjNLRC4 antibodies
[2] = biological target: GST-tagged AjNLRC4-IN (intracellular fragment of AjNLRC4 with the NACHT domain) (Apostichopus japonicus); assay: MST; Monolith NT; labeled GST-AjNLRC4-IN (10 μM) constant, a range of concentrations of His-β-Actin; 50 mM Tris-HCl pH 7.8, 150 mM NaCl, 10 mM MgCl2, 0.05% Tween-20; 10 min incubation; 20% LED power, 80% MST power

| Substance | oligomeric state (subunits per complex) [1] | Kd [2] [µM] |
| --- | --- | --- |
| AjNLRC4 (native, on coelomocytes) (receptor) | 2 | – |
| His-tagged Ajβ-actin (natural protein) | – | 5.87 |
